PMC6814714, “Binding partner- and force-promoted changes in αE-catenin conformation probed by native cysteine labeling” (Scientific Reports, 2019)

B2: β-catenin•Ecyto complex (complex)
chain 1: MATQADLMELDMAMEPDRKAAVSHWQQQSYLDSGIHSGATTTAPSLSGKGNPEEEDVDTSQVLYEWEQGFSQSFTQEQVADIDGQYAMTRAQRVRAAMFPETLDEGMQIPSTQFDAAHPTNVQRLAEPSQMLKHAVVNLINYQDDAELATRAIPELTKLLNDEDQVVVNKAAVMVHQLSKKEASRHAIMRSPQMVSAIVRTMQNTNDVETARCTAGTLHNLSHHREGLLAIFKSGGIPALVKMLGSPVDSVLFYAITTLHNLLLHQEGAKMAVRLAGGLQKMVALLNKTNVKFLAITTDCLQILAYGNQESKLIILASGGPQALVNIMRTYTYEKLLWTTSRVLKVLSVCSSNKPAIVEAGGMQALGLHLTDPSQRLVQNCLWTLRNLSDAATKQEGMEGLLGTLVQLLGSDDINVVTCAAGILSNLTCNNYKNKMMVCQVGGIEALVRTVLRAGDREDITEPAICALRHLTSRHQEAEMAQNAVRLHYGLPVVVKLLHPPSHWPLIKATVGLIRNLALCPANHAPLREQGAIPRLVQLLVRAHQDTQRRTSMGGTQQQFVEGVRMEEIVEGCTGALHILARDVHNRIVIRGLNTIPLFVQLLYSPIENIQRVAAGVLCELAQDKEAAEAIEAEGATAPLTELLHSRNEGVATYAAAVLFRMSEDKPQDYKKRLSVELTSSLFRTEPMAWNETADLGLDIGAQGEALGYRQDDPSYRSFHSGGYGQDALGMDPMMEHEMGGHHPGADYPVDGLPDLGHAQDLMDGLPPGDSNQLAWFDTDL
chain 2: not shown
notes: β-catenin, murine; cytoplasmic domain of E-cadherin (Ecyto); also called E-cadherin•β-catenin complex; cadherin•β-catenin
B4: αE-catenin R551A (full-length) (natural protein, murine, UniProt P26231 1-906, looked up)
chain: MTAVHAGNINFKWDPKSLEIRTLAVERLLEPLVTQVTTLVNTNSKGPSNKKRGRSKKAHVLAASVEQATENFLEKGDKIAKESQFLKEELVVAVEDVRKQGDLMKSAAGEFADDPCSSVKRGNMVRAARALLSAVTRLLILADMADVYKLLVQLKVVEDGILKLRNAGNEQDLGIQYKALKPEVDKLNIMAAKRQQELKDVGNRDQMAAARGILQKNVPILYTASQACLQHPDVAAYKANRDLIYKQLQQAVTGISNAAQATASDDAAQHQGGSGGELAYALNNFDKQIIVDPLSFSEERFRPSLEERLESIISGAALMADSSCTRDDRRERIVAECNAVRQALQDLLSEYMGNAGRKERSDALNSAIDKMTKKTRDLRRQLRKAVMDHVSDSFLETNVPLLVLIEAAKNGNEKEVKEYAQVFREHANKLIEVANLACSISNNEEGVKLVRMSASQLEALCPQVINAALALAAKPQSKLAQENMDLFKEQWEKQVRVLTDAVDDITSIDDFLAVSENHILEDVNKCVIALQEKDVDGLDRTAGAIRGRAAAVIHVVTSEMDNYEPGVYTEKVLEATKLLSNTVMPRFTEQVEAAVEALSSDPAQPMDENEFIDASRLVYDGIRDIRKAVLMIRTPEELDDSDFETEDFDVRSRTSVQTEDDQLIAGQSARAIMAQLPQEQKAKIAEQVASFQEEKSKLDAEVSKWDDSGNDIIVLAKQMCMIMMEMTDFTRGKGPLKNTSDVISAAKKIAEAGSRMDKLGRTIADHCPDSACKQDLLAYLQRIALYCHQLNICSKVKAEVQNLGGELVVSGVDSAMSLIQAAKNLMNAVVQTVKASYVASTKYQKSQGMASLNLPAVSWKMKAPEKKPLVKREKQDETQTKIKRASQKKHVNPVQALSEFKAMDSI
notes: αE-catenin, murine, full length, with the point mutation R551A; Used in ITC (monomer in the cell); also called R551A αE-catenin; R551A mutant; source: E. coli BL21, purified (glutathione-agarose, TEV cleavage, Mono Q, SEC); monomer used; not shown: GST, N-terminal, cleaved

Assays:
[1] = molecular target: B4; experiment: ITC; VP-ITC; αE-catenin monomer (or its complex) in the cell at 8–11 μM, binding partner injected at 70–155 μM; 20 mM HEPES pH 8.0, 150 mM NaCl, 1 mM DTT; 25 °C; conditions: both partners purified
[2] = molecular target: T1, αE-catenin R551A•β-catenin•Ecyto complex (murine | , UniProt P26231 1-906; Q02248 1-781; P09803 734-884, R551A); experiment: as above; conditions: both partners purified
T1 construct: αE-catenin, murine, full length, with the point mutation R551A; β-catenin, murine; cytoplasmic domain of E-cadherin (Ecyto); Ternary complex placed in the ITC cell; also called ternary E-cadherin•β-catenin•αE-catenin R551A mutant complex; source: αE-catenin R551A: E. coli BL21, purified; not shown: GST, N-terminal, cleaved; copies: + +
T1 sequence (P09803 734-884, stated change not applied, one chain of several): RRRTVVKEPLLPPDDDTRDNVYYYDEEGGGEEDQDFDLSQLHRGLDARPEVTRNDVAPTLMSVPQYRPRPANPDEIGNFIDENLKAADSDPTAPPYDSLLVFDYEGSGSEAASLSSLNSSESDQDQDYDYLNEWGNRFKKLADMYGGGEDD

[3] = molecular target: B2; experiment: as above; conditions: both partners purified
[4] = molecular target: the molecule itself; experiment: crystal structure; αE-catenin 82–883 (C116S) dimer, 4.0 Å, crystals not dehydrated

B1: β-catenin (natural protein, murine, UniProt Q02248 1-781, looked up)
chain: MATQADLMELDMAMEPDRKAAVSHWQQQSYLDSGIHSGATTTAPSLSGKGNPEEEDVDTSQVLYEWEQGFSQSFTQEQVADIDGQYAMTRAQRVRAAMFPETLDEGMQIPSTQFDAAHPTNVQRLAEPSQMLKHAVVNLINYQDDAELATRAIPELTKLLNDEDQVVVNKAAVMVHQLSKKEASRHAIMRSPQMVSAIVRTMQNTNDVETARCTAGTLHNLSHHREGLLAIFKSGGIPALVKMLGSPVDSVLFYAITTLHNLLLHQEGAKMAVRLAGGLQKMVALLNKTNVKFLAITTDCLQILAYGNQESKLIILASGGPQALVNIMRTYTYEKLLWTTSRVLKVLSVCSSNKPAIVEAGGMQALGLHLTDPSQRLVQNCLWTLRNLSDAATKQEGMEGLLGTLVQLLGSDDINVVTCAAGILSNLTCNNYKNKMMVCQVGGIEALVRTVLRAGDREDITEPAICALRHLTSRHQEAEMAQNAVRLHYGLPVVVKLLHPPSHWPLIKATVGLIRNLALCPANHAPLREQGAIPRLVQLLVRAHQDTQRRTSMGGTQQQFVEGVRMEEIVEGCTGALHILARDVHNRIVIRGLNTIPLFVQLLYSPIENIQRVAAGVLCELAQDKEAAEAIEAEGATAPLTELLHSRNEGVATYAAAVLFRMSEDKPQDYKKRLSVELTSSLFRTEPMAWNETADLGLDIGAQGEALGYRQDDPSYRSFHSGGYGQDALGMDPMMEHEMGGHHPGADYPVDGLPDLGHAQDLMDGLPPGDSNQLAWFDTDL
notes: β-catenin, murine; also called murine β-catenin
Kd [1]: 78 nM | dH [1]: -33.3 kcal/mol

B2
dH [1]: -32.3 kcal/mol

B3: vinculin D1 domain (residues 1–259) (domain or fragment, chicken, UniProt P12003 1-259, looked up)
chain: MPVFHTRTIESILEPVAQQISHLVIMHEEGEVDGKAIPDLTAPVSAVQAAVSNLVRVGKETVQTTEDQILKRDMPPAFIKVENACTKLVRAAQMLQADPYSVPARDYLIDGSRGILSGTSDLLLTFDEAEVRKIIRVCKGILEYLTVAEVVETMEDLVTYTKNLGPGMTKMAKMIDERQQELTHQEHRVMLVNSMNTVKELLPVLISAMKIFVTTKNTKSQGIEEALKNRNFTVEKMSAEINEIIRVLQLTSWDEDAWA
notes: vinculin D1 domain, residues 1–259; the methods name chicken vinculin just before it
Kd [1]: 4.1 nM | dH [1]: 7.7 kcal/mol | Kd [2]: 26 nM | dH [2]: 6.7 kcal/mol

B4
Kd [3]: 14 nM

B5: αE-catenin 82–883 (C116S) (domain or fragment, murine, UniProt P26231 82-883, looked up)
chain: ESQFLKEELVVAVEDVRKQGDLMKSAAGEFADDPSSSVKRGNMVRAARALLSAVTRLLILADMADVYKLLVQLKVVEDGILKLRNAGNEQDLGIQYKALKPEVDKLNIMAAKRQQELKDVGNRDQMAAARGILQKNVPILYTASQACLQHPDVAAYKANRDLIYKQLQQAVTGISNAAQATASDDAAQHQGGSGGELAYALNNFDKQIIVDPLSFSEERFRPSLEERLESIISGAALMADSSCTRDDRRERIVAECNAVRQALQDLLSEYMGNAGRKERSDALNSAIDKMTKKTRDLRRQLRKAVMDHVSDSFLETNVPLLVLIEAAKNGNEKEVKEYAQVFREHANKLIEVANLACSISNNEEGVKLVRMSASQLEALCPQVINAALALAAKPQSKLAQENMDLFKEQWEKQVRVLTDAVDDITSIDDFLAVSENHILEDVNKCVIALQEKDVDGLDRTAGAIRGRAARVIHVVTSEMDNYEPGVYTEKVLEATKLLSNTVMPRFTEQVEAAVEALSSDPAQPMDENEFIDASRLVYDGIRDIRKAVLMIRTPEELDDSDFETEDFDVRSRTSVQTEDDQLIAGQSARAIMAQLPQEQKAKIAEQVASFQEEKSKLDAEVSKWDDSGNDIIVLAKQMCMIMMEMTDFTRGKGPLKNTSDVISAAKKIAEAGSRMDKLGRTIADHCPDSACKQDLLAYLQRIALYCHQLNICSKVKAEVQNLGGELVVSGVDSAMSLIQAAKNLMNAVVQTVKASYVASTKYQKSQGMASLNLPAVSWKMKAPEKKPLVKREKQDETQTKIK
notes: Crystallised as a homodimer; source: E. coli BL21, purified (glutathione-agarose, TEV cleavage, Mono Q, SEC); not shown: GST, N-terminal, cleaved
binding result [4]: binds
